# Values of other authors as cited in publication PMC12206923.
# Molecular target: dimeric IL-2 receptor (Homo sapiens) (UniProt P14784)
# Chain of UniProt P14784 (P14784 27-240, chain 1 of 2): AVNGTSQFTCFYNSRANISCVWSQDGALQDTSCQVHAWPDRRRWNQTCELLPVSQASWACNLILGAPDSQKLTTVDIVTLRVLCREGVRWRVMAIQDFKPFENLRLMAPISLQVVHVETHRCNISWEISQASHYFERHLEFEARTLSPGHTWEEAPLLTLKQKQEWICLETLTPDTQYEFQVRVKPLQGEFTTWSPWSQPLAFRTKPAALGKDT
# Chain of UniProt P14784 (P31785 23-262, chain 2 of 2, further chain): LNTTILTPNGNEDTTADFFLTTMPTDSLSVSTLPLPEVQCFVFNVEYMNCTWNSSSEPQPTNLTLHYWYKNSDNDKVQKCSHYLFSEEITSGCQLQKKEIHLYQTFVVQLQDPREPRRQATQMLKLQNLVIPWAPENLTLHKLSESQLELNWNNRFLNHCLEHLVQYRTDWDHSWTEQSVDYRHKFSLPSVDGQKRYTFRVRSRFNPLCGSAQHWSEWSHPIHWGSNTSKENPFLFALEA
# Chain of IL-2 (P60568 21-153): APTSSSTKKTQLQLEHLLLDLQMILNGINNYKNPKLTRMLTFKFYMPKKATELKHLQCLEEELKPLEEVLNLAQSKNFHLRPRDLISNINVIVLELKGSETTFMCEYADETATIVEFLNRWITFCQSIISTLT
substance,measurement,value
IL-2 (from UniProt P60568),Kd,1 nM
